The supplement of paper PMC10567573

B1: RAB40A (parent)
chain: NWLGRPSKVLSLQDLCCRTIVSCT
B2: CLPTM1 (parent)
chain: LGCYAVYSLLYLEHKGWYSWVLSM

Variants of: B1
Assay: protein stability index of a GFP-peptide fusion (GPS, HEK-293T) (PSI 1-6); higher = more stable
Details: c terminus: a fixed tail appended
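Also: lentivirally expressed fusions sorted by FACS into six bins by GFP to DsRed ratio, PSI derived from sequencing read proportions per bin multiplied by bin number.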

Variant | protein stability index
NWLGRPSKVLSLQDLCCRTIVVCT [S22V] | 1.77
NWLGRPVKVLSLQDLCCRTIVSCT [S7V] | 2.22
NWLGRPSKVLSLQPLCCRTIVSCT [D14P] | 1.97
NWLGRPSKVLSLQDLCCRTIGSCT [V21G] | 2.64
NWLGRVSKVLSLQDLCCRTIVSCT [P6V] | 1.91
NDLGRPSKVLSLQDLCCRTIVSCT [W2D] | 3.7
NWLGRPSKVLSLQDLCCQTIVSCT [R18Q] | 2.26
NWLGRPSKVLSLQDLCCRTIVSCL [T24L] | 2.31
NWLGRPSKVLSLQDPCCRTIVSCT [L15P] | 1.62
NWLGRPSKVLSLQDLCCRTIVGCT [S22G] | 2.57
QWLGRPSKVLSLQDLCCRTIVSCT [N1Q] | 2.29
NWLGRPSKVLSLQDLRCRTIVSCT [C16R] | 1.75
NWLGRLSKVLSLQDLCCRTIVSCT [P6L] | 1.76
NWLGRPSKVLSLQLLCCRTIVSCT [D14L] | 1.67
NWLGRPSHVLSLQDLCCRTIVSCT [K8H] | 2.16
NWLGRPSKVLSLQDLCCDTIVSCT [R18D] | 1.99
NWLGRPTKVLSLQDLCCRTIVSCT [S7T] | 2.41
NWLGRHSKVLSLQDLCCRTIVSCT [P6H] | 2.21
NWLGRPSKVLALQDLCCRTIVSCT [S11A] | 1.88
NWLGRPSKVLSLQDLCCITIVSCT [R18I] | 1.68
NWLGRPSKVLSLHDLCCRTIVSCT [Q13H] | 2.62
NWLGRPSKVLSLVDLCCRTIVSCT [Q13V] | 2.81

Variant | protein stability index
NWLGRQSKVLSLQDLCCRTIVSCT [P6Q] | 2.06
NWLGRPQKVLSLQDLCCRTIVSCT [S7Q] | 2.47
NWLGRPSKVLSLQDACCRTIVSCT [L15A] | 2.15
NWLGRPSKILSLQDLCCRTIVSCT [V9I] | 2.36
NWLGRPSKVLSLQDLCCRTYVSCT [I20Y] | 2.1
NTLGRPSKVLSLQDLCCRTIVSCT [W2T] | 3.08
NWLGRPSKVLSLQDHCCRTIVSCT [L15H] | 1.99
NWLGRPFKVLSLQDLCCRTIVSCT [S7F] | 2.28
NWLGRPSKVLSLQDLCCRTIVKCT [S22K] | 2.75
NWLGRPSSVLSLQDLCCRTIVSCT [K8S] | 2.31
NWLGHPSKVLSLQDLCCRTIVSCT [R5H] | 2.25
NWFGRPSKVLSLQDLCCRTIVSCT [L3F] | 2.28
NWLGRPSKVLSLQDLCCGTIVSCT [R18G] | 2
NWLGRPSKVLSLQDLCCRTIVSCN [T24N] | 2.87
NWLGRPSKVLSDQDLCCRTIVSCT [L12D] | 1.8
NWLGRPSKVLSLQDLCCRTIVSCR [T24R] | 2.89
HWLGRPSKVLSLQDLCCRTIVSCT [N1H] | 2.2
NWLGRPHKVLSLQDLCCRTIVSCT [S7H] | 1.96
NWLGRPSKVLSLQDKCCRTIVSCT [L15K] | 2.16
NQLGRPSKVLSLQDLCCRTIVSCT [W2Q] | 3.14
NLLGRPSKVLSLQDLCCRTIVSCT [W2L] | 2.68
NWLGRPSKVLSLQDLCCRFIVSCT [T19F] | 2.26

Variant | protein stability index
NWLGRPSKVLSLQDVCCRTIVSCT [L15V] | 1.72
NWLGRPSKVLSLQCLCCRTIVSCT [D14C] | 1.78
NWLGRPSKYLSLQDLCCRTIVSCT [V9Y] | 2.23
NWLGRPSKVLSLQDLCCRTIFSCT [V21F] | 2.43
NWLGRPSKVLSLQDLCCRTIVFCT [S22F] | 2.47
NWLGRPSKVLSLQDLCCRTIVSLT [C23L] | 2.37
NWLGRPSKVLSAQDLCCRTIVSCT [L12A] | 1.38
NWLGRPSKVLSCQDLCCRTIVSCT [L12C] | 1.79
NWAGRPSKVLSLQDLCCRTIVSCT [L3A] | 2.53
NWLGRPSKVLSLQDLCCRTIVSCI [T24I] | 1.58
NWLGRPSKVLSLQDLCCRTIVSNT [C23N] | 2.93
NWLERPSKVLSLQDLCCRTIVSCT [G4E] | 2.77
NWLGRPSKVLSLQDLCCCTIVSCT [R18C] | 2.35
NWLGRMSKVLSLQDLCCRTIVSCT [P6M] | 1.76
NWLGRPSKVLSLQDLCCRTIVSHT [C23H] | 2.69
NWLGRPSKVLSLQDLCCRTIVSWT [C23W] | 2.67
NWLGRPSKVLSIQDLCCRTIVSCT [L12I] | 2.27
NWLGRPSKVLSLQDTCCRTIVSCT [L15T] | 1.92
NWLGRPSKVSSLQDLCCRTIVSCT [L10S] | 2.57
NWLGRPSGVLSLQDLCCRTIVSCT [K8G] | 2.01
NWLGRPSKVLSLQDECCRTIVSCT [L15E] | 2.15
NWLGRPSKVLSLQDLCIRTIVSCT [C17I] | 2.54

Variants of: B2
Assay: as above
Details: c terminus: a fixed tail appended

Variant | protein stability index
CGCYAVYSLLYLEHKGWYSWVLSM [L1C] | 2.92
DGCYAVYSLLYLEHKGWYSWVLSM [L1D] | 2.85
EGCYAVYSLLYLEHKGWYSWVLSM [L1E] | 3.05
FGCYAVYSLLYLEHKGWYSWVLSM [L1F] | 2.55
GGCYAVYSLLYLEHKGWYSWVLSM [L1G] | 2.73
HGCYAVYSLLYLEHKGWYSWVLSM [L1H] | 2.19
IGCYAVYSLLYLEHKGWYSWVLSM [L1I] | 3.58
MGCYAVYSLLYLEHKGWYSWVLSM [L1M] | 3.26
NGCYAVYSLLYLEHKGWYSWVLSM [L1N] | 3.26
QGCYAVYSLLYLEHKGWYSWVLSM [L1Q] | 4.62
RGCYAVYSLLYLEHKGWYSWVLSM [L1R] | 3.05
SGCYAVYSLLYLEHKGWYSWVLSM [L1S] | 3.4
TGCYAVYSLLYLEHKGWYSWVLSM [L1T] | 3.54
VGCYAVYSLLYLEHKGWYSWVLSM [L1V] | 2.65
WGCYAVYSLLYLEHKGWYSWVLSM [L1W] | 2.96
YGCYAVYSLLYLEHKGWYSWVLSM [L1Y] | 3.77
LDCYAVYSLLYLEHKGWYSWVLSM [G2D] | 3.19
LECYAVYSLLYLEHKGWYSWVLSM [G2E] | 3.26
LFCYAVYSLLYLEHKGWYSWVLSM [G2F] | 2.72
LICYAVYSLLYLEHKGWYSWVLSM [G2I] | 2.87
LLCYAVYSLLYLEHKGWYSWVLSM [G2L] | 3.57
LMCYAVYSLLYLEHKGWYSWVLSM [G2M] | 3.58
LNCYAVYSLLYLEHKGWYSWVLSM [G2N] | 3.83
LPCYAVYSLLYLEHKGWYSWVLSM [G2P] | 2.76
LQCYAVYSLLYLEHKGWYSWVLSM [G2Q] | 3.29
LRCYAVYSLLYLEHKGWYSWVLSM [G2R] | 3.1
LSCYAVYSLLYLEHKGWYSWVLSM [G2S] | 1.47
LTCYAVYSLLYLEHKGWYSWVLSM [G2T] | 3.4
